Assay results: article PMC9588639 (Journal of thrombosis and haemostasis : JTH, 2022)

Legend:
Experiment in all cases: BLI
[1] = target: mouse GPIbα LBD (mLBD, residues 1-290) (mouse)
[2] = target: human GPIbα LBD (mature protein residues 1-290) (human)
[3] = target: human GPIbα LBD (mature protein residues 1-290) W230L (human, UniProt P07359 17-306, W230L)
human GPIbα LBD (mature protein residues 1-290) W230L, sequence (P07359 17-306 W246L): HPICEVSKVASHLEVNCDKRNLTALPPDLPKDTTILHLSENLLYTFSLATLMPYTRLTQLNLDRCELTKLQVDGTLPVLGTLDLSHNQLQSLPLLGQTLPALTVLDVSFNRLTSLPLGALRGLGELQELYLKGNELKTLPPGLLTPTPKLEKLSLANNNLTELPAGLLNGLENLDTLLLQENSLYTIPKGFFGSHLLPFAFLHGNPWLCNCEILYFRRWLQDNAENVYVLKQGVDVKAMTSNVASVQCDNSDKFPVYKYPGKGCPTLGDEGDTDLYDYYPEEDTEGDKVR

mouse GPIbα LBD (mLBD, residues 1-290) (mouse), sequence (O35930 whole entry, the tested form may be a part): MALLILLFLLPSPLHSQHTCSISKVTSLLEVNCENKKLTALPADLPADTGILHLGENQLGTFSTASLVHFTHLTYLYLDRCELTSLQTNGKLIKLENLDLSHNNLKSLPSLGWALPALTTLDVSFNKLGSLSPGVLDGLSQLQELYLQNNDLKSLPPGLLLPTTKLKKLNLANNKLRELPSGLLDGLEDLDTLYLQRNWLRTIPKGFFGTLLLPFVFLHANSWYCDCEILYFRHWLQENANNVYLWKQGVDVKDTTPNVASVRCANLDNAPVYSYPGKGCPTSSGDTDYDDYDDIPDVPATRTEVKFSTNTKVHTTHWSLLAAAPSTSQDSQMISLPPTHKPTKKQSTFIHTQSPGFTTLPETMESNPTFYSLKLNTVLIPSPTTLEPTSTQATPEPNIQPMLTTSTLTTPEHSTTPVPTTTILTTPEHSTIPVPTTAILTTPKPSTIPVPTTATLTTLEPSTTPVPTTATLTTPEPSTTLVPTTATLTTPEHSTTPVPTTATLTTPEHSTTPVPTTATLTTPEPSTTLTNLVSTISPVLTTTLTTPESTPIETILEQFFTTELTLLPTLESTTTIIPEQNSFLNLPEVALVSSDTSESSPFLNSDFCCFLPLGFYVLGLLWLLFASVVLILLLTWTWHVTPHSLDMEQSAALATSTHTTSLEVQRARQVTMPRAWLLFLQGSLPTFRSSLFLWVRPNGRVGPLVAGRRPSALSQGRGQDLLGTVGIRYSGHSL

## mouse tAIM-A1 (containing VWF residues 1261-1472) (from UniProt Q8CIZ8 1261-1472) (domain or fragment)
[1]
  Kd: 386 nM

B1: recombinant mouse AIM-A1 protein (mouse VWF residues 1238-1493) (domain or fragment, UniProt Q8CIZ8 1238-1493, looked up)
chain: QEPGGLVAPPTDAPVSSTTPYVEDTPEPPLHNFYCSKLLDLVFLLDGSSMLSEAEFEVLKAFVVGMMERLHISQKRIRVAVVEYHDGSRAYLELKARKRPSELRRITSQIKYTGSQVASTSEVLKYTLFQIFGKIDRPEASHITLLLTASQEPPRMARNLVRYVQGLKKKKVIVIPVGIGPHASLKQIRLIEKQAPENKAFLLSGVDELEQRRDEIVSYLCDLAPEAPAPTQPPQVAHVTVSPGIAGISSPGPKRK
[2]
  Kd: 515 nM
[1]
  Kd: 1000 nM
[3]
  binding result: binds
